Data set [1] has as its target T1, OXA-405 β-lactamase (Serratia marcescens, UniProt A0A0F6P2I5).
T1 construct: gene blaOXA-405
The experiment in a line: IC50 with purified enzyme, […] benzylpenicillin as reporter substrate, […] min preincubation. In kind it is biochemical.

Data set [2] concerns the target T1, OXA-405 β-lactamase. The experiment in a line: steady-state hydrolysis kinetics (Km) with purified enzyme. The data set is classed as biochemical.
Data set [3] deals with CC(=O)OCC1=C(C(=O)O)N2C(=O)[C@@H](NC(=O)Cc3cccs3)[C@H]2SC1. Described as above. The data set is classed as biochemical, Serratia marcescens.
For data set [4], the system named is CC1(C)S[C@@H]2[C@H](NC(=O)Cc3ccccc3)C(=O)N2[C@H]1C(=O)O. The description is as above. The data set is classed as biochemical, Serratia marcescens.
The subject of data set [5] is Cc1onc(-c2ccccc2)c1C(=O)N[C@@H]1C(=O)N2[C@@H]1SC(C)(C)[C@@H]2C(=O)O. The data set is described as above. In kind it is biochemical, Serratia marcescens.
The subject of data set [6] is C[C@@H](O)[C@H]1C(=O)N2C(C(=O)O)=C(S[C@@H]3CN[C@H](C(=O)Nc4cccc(C(=O)O)c4)C3)[C@H](C)[C@H]12. The description is as above. In kind it is biochemical, Serratia marcescens.
For data set [7], the system named is CO/N=C(\C(=O)N[C@@H]1C(=O)N2C(C(=O)O)=C(COC(C)=O)CS[C@H]12)c1csc(N)n1. The data set is described as above. The data set is classed as biochemical, Serratia marcescens.
For data set [8], the system named is CC1(C)S[C@@H]2[C@H](NC(=O)[C@H](N)c3ccccc3)C(=O)N2[C@H]1C(=O)O. The description is as above. In kind it is biochemical, Serratia marcescens.
Data set [9] has as its system C[C@@H](O)[C@H]1C(=O)N2C(C(=O)O)=C(SCCN=CN)C[C@H]12. The description is as above. The data set is classed as biochemical, Serratia marcescens.

These results are taken from PMC7022249, “Biochemical and Structural Characterization of OXA-405, an OXA-48 Variant with Extended-Spectrum β-Lactamase Activity” (Microorganisms, 2019).

One may read the IC50 as the point on the concentration scale where inhibition reaches its midpoint. Higher therefore signals lower potency. Broadly, the Km is the concentration of substrate that gives half-maximal velocity. As usually defined, the kcat is the maximal rate divided by the concentration of active sites. Broadly, the kcat/Km is the second-order rate constant that governs catalysis at low substrate concentration.

T1 sequence (A0A0F6P2I5 23-261 limits assumed): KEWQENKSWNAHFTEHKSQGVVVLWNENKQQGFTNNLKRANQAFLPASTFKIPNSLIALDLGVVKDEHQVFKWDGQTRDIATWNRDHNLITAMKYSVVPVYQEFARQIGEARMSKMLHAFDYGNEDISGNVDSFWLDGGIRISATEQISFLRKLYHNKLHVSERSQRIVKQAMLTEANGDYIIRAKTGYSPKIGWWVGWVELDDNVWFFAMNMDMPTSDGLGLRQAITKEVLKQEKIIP

Consider `O=C(O)[C@H]1/C(=C/CO)O[C@@H]2CC(=O)N21` [Clavulanic acid], for which, in data set [1], the midpoint of inhibition, the IC50, lay at 6 µM.

`C[C@]1(Cn2ccnn2)[C@H](C(=O)O)N2C(=O)C[C@H]2S1(=O)=O` [Tazobactam]: in data set [1], inhibition was half-maximal at 1.8 µM (IC50). This IC50 lies about 3.3-fold lower than the previous one.

Regarding `CC(C)(O/N=C(\C(=O)N[C@@H]1C(=O)N2C(C(=O)[O-])=C(C[n+]3ccccc3)CS[C@H]12)c1csc(N)n1)C(=O)O` [Ceftazidime], the Km in [2] is greater than 1000 µM.

Consider “OXA-405 β-lactamase (Serratia marcescens)”, for which the Michaelis constant (Km) was found to be 18 µM in [3]; 18 µM in data set [4]; 69 µM in [5]; 88 µM in data set [6]; 369 µM in data set [7]; 212 µM in data set [8]. Further, in [9], the Michaelis constant (Km) worked out at 532 µM. Besides, the kcat was found to be 8 s⁻¹ in data set [3]; 12 s⁻¹ in data set [4]; 19 s⁻¹ in data set [5]; 0.04 s⁻¹ in data set [6]; 9.7 s⁻¹ in [7]; 29 s⁻¹ in [8]. The kcat in data set [9] turned out to be 0.1 s⁻¹. The kcat/Km is 444000 M⁻¹ s⁻¹ in data set [3]; 667000 M⁻¹ s⁻¹ in data set [4]; 275000 M⁻¹ s⁻¹ in [5]; 400 M⁻¹ s⁻¹ in [6]; 26000 M⁻¹ s⁻¹ in [7]; 137000 M⁻¹ s⁻¹ in data set [8]. Moreover, the kcat/Km in data set [9] came to 200 M⁻¹ s⁻¹.
